Results published in patent publication US20240327497A1.
Changes are numbered by the printed parent chain. Names may count otherwise. “And” between values parts separate entries of the source, which are not always exact repeats. Equal values may be shown once.

B1: anti-NGF canine IgGB antibody, Fc variant N434R + T286L (antibody, part only; not given: Anti-NGF variable domains, not shown: another chain or arm of the molecule)
Fc: APEMLGGPSVFIFPPKPKDTLLIARTPEVTCVVVDLDPEDPEVQISWFVDGKQMQLAKTQPREEQFNGTYRVVSVLPIGHQDWLKGKQFTCKVNNKALPSPIERTISKARGQAHQPSVYVLPPSREELSKNTVSLTCLIKDFFPPDIDVEWQSNGQQEPESKYRTTPPQLDEDGSYFLYSKLSVDKSRWQRGDTFICAVMHEALHRHYTQESLSHSPGK
B2: anti-NGF canine IgGB antibody, Fc variant N434R + D312P (antibody, part only; not given: anti-NGF variable domains and light chain, not shown: another chain or arm of the molecule)
Fc: B1 Fc with L56T, D82P
B3: anti-NGF canine IgGB antibody, Fc variant A426Y + N434R (antibody, part only; not given: anti-NGF variable domains and light chain, not shown: another chain or arm of the molecule; small tags and cut ends)
Fc: B1 Fc with L56T, A198Y
B4: anti-NGF canine IgGB antibody, Fc variant A426H + T286Y (antibody, part only; not given: anti-NGF variable domains and light chain, not shown: another chain or arm of the molecule; small tags and cut ends)
Fc: B1 Fc with L56Y, A198H, R206N
B5: anti-NGF canine IgGB antibody, Fc variant N434R + T286Y (antibody, part only; not given: anti-NGF variable domains and light chain, not shown: another chain or arm of the molecule)
Fc: B1 Fc with L56Y
B6: anti-NGF canine IgGB antibody, Fc variant N434R (antibody, part only; not given: Anti-NGF variable domains, not shown: another chain or arm of the molecule)
Fc: B1 Fc with L56T
B7: anti-NGF canine IgGB antibody, Fc variant N434R + Y436H (antibody, part only; not given: Anti-NGF variable domains, not shown: another chain or arm of the molecule)
Fc: B1 Fc with L56T, Y208H
B8: anti-NGF canine IgGB antibody, Fc variant A426H + T286L (antibody, part only; not given: Anti-NGF variable domains, not shown: another chain or arm of the molecule; small tags and cut ends)
Fc: B1 Fc with A198H, R206N
B9: anti-NGF canine IgGB antibody, Fc variant A426Y + T286L (antibody, part only; not given: Anti-NGF variable domains, not shown: another chain or arm of the molecule; small tags and cut ends)
Fc: B1 Fc with A198Y, R206N
B10: anti-NGF canine IgGB antibody, Fc variant A426Y + D312P (antibody, part only; not given: anti-NGF variable domains and light chain, not shown: another chain or arm of the molecule; small tags and cut ends)
Fc: B1 Fc with L56T, D82P, A198Y, R206N
B11: anti-NGF canine IgGB antibody, Fc variant A426H + D312P (antibody, part only; not given: Anti-NGF variable domains, not shown: another chain or arm of the molecule; small tags and cut ends)
Fc: B1 Fc with L56T, D82P, A198H, R206N
B12: anti-NGF canine IgGB antibody, Fc variant N434Y (antibody, part only; not given: Anti-NGF variable domains, not shown: another chain or arm of the molecule)
Fc: B1 Fc with L56T, R206Y
B13: canine IgGB Fc (CH2-CH3) M428A with N-terminal SASA tag (Fc fusion, part only; not given: SASA tag, not shown: another chain or arm of the molecule; small tags and cut ends)
Fc: B1 Fc with L56T, M200A, R206N
B14: canine IgGB Fc (CH2-CH3) Q285A with N-terminal SASA tag (Fc fusion, part only; not given: SASA tag, not shown: another chain or arm of the molecule; small tags and cut ends)
Fc: B1 Fc with Q55A, L56T, R206N
B15: canine IgGB Fc (CH2-CH3) I308A with N-terminal SASA tag (Fc fusion, part only; not given: SASA tag, not shown: another chain or arm of the molecule; small tags and cut ends)
Fc: B1 Fc with L56T, I78A, R206N
B16: canine IgGB Fc (CH2-CH3) D378A with N-terminal SASA tag (Fc fusion, part only; not given: SASA tag, not shown: another chain or arm of the molecule; small tags and cut ends)
Fc: B1 Fc with L56T, D148A, R206N
B17: canine IgGB Fc (CH2-CH3) K315A with N-terminal SASA tag (Fc fusion, part only; not given: SASA tag, not shown: another chain or arm of the molecule; small tags and cut ends)
Fc: B1 Fc with L56T, K85A, R206N
B18: canine IgGB Fc (CH2-CH3) Y436A with N-terminal SASA tag (Fc fusion, part only; not given: SASA tag, not shown: another chain or arm of the molecule; small tags and cut ends)
Fc: B1 Fc with L56T, R206N, Y208A

Target: canine FcRn (FcRn large subunit with canine beta-2-microglobulin) (canine)
Test: SPR pH 7.4, FcRn coupled at high density, IgG 400 nM

| Kd | kon | koff | Binder |
| --- | --- | --- | --- |
| 134 nM |  |  | B1 |
| 104 nM | 4.95e+08 M⁻¹ s⁻¹ |  | B2 |
| 129 nM |  |  | B3 |
| 940 nM | 136000 M⁻¹ s⁻¹ | 0.128 s⁻¹ | B4 |
| 81.2 nM | 3.4e+08 M⁻¹ s⁻¹ |  | B5 |
| 234 nM | 8.25e+08 M⁻¹ s⁻¹ |  | B6 |
| 382 nM | 666000 M⁻¹ s⁻¹ | 0.255 s⁻¹ | B7 |
| 1600 nM | 81200 M⁻¹ s⁻¹ | 0.13 s⁻¹ | B8 |
| 1120 nM | 82300 M⁻¹ s⁻¹ | 0.092 s⁻¹ | B9 |
| 2900 nM | 58900 M⁻¹ s⁻¹ | 0.171 s⁻¹ | B10 |
| 722 nM | 217000 M⁻¹ s⁻¹ | 0.156 s⁻¹ | B11 |
| 80.2 nM | 2.87e+06 M⁻¹ s⁻¹ | 0.23 s⁻¹ | B12 |

Target: canine FcRn (FcRn large subunit with canine beta-2-microglobulin) (canine)
Test: SPR pH 5.5, SASA-Fc captured on BSA, FcRn 400 nM

| Kd | WT KD Avg/Variant KD | kon | koff | Binder |
| --- | --- | --- | --- | --- |
| 723 nM and 1670 nM | 0.78 and 0.34 | 234000 M⁻¹ s⁻¹ and 318000 M⁻¹ s⁻¹ |  | B13 |
| 341 nM and 257 nM | 1.66 and 2.2 |  | 0.112 s⁻¹ | B14 |
| 472 nM and 563 nM | 1.2 and 1 | 357000 M⁻¹ s⁻¹ and 345000 M⁻¹ s⁻¹ | 0.169 s⁻¹ and 0.194 s⁻¹ | B15 |
| 673 nM and 592 nM | 0.84 and 0.96 | 272000 M⁻¹ s⁻¹ and 306000 M⁻¹ s⁻¹ | 0.183 s⁻¹ and 0.181 s⁻¹ | B16 |
| 422 nM and 548 nM | 1.34 and 1.03 |  | 0.134 s⁻¹ | B17 |
| 393 nM and 876 nM | 1.44 and 0.65 |  | 0.407 s⁻¹ and 0.213 s⁻¹ | B18 |

Target: canine FcRn (FcRn large subunit with canine beta-2-microglobulin) (canine)
Test: SPR pH 5.9, IgG coupled to C1 chip, 1:1 kinetic fit

| Kd | koff | kon | Binder |
| --- | --- | --- | --- |
| 21.3 nM | 0.0286 s⁻¹ | 1.34e+06 M⁻¹ s⁻¹ | B4 |
| 35.8 nM | 0.0417 s⁻¹ | 1.16e+06 M⁻¹ s⁻¹ | B8 |
| 42.3 nM | 0.0436 s⁻¹ | 1.03e+06 M⁻¹ s⁻¹ | B9 |
| 45.1 nM | 0.0497 s⁻¹ | 1.1e+06 M⁻¹ s⁻¹ | B10 |
| 40.5 nM | 0.0532 s⁻¹ | 1.31e+06 M⁻¹ s⁻¹ | B11 |

Target: canine FcRn (FcRn large subunit with canine beta-2-microglobulin) (canine)
Test: SPR pH 6.0, IgG coupled to CM5, FcRn 50-800 nM

| Kd | koff | kon | Binder |
| --- | --- | --- | --- |
| 173 nM | 0.031 s⁻¹ | 180000 M⁻¹ s⁻¹ | B1 |
| 197 nM | 0.048 s⁻¹ | 244000 M⁻¹ s⁻¹ | B2 |
| 288 nM | 0.0591 s⁻¹ | 206000 M⁻¹ s⁻¹ | B3 |
| 255 nM | 0.0409 s⁻¹ | 160000 M⁻¹ s⁻¹ | B4 |
| 93.7 nM | 0.0221 s⁻¹ | 236000 M⁻¹ s⁻¹ | B5 |
| 497 nM | 0.107 s⁻¹ | 216000 M⁻¹ s⁻¹ | B6 |
| 320 nM | 0.0838 s⁻¹ | 262000 M⁻¹ s⁻¹ | B7 |
| 464 nM | 0.069 s⁻¹ | 149000 M⁻¹ s⁻¹ | B8 |
| 327 nM | 0.0559 s⁻¹ | 171000 M⁻¹ s⁻¹ | B9 |
| 421 nM | 0.0577 s⁻¹ | 137000 M⁻¹ s⁻¹ | B10 |
| 376 nM | 0.0547 s⁻¹ | 145000 M⁻¹ s⁻¹ | B11 |
| 70.8 nM | 0.0181 s⁻¹ | 255000 M⁻¹ s⁻¹ | B12 |
